Where no end group is shown, it is not given here. [ ]: non-standard residue; d: D form. The star is where a group is joined. NMeF = CN[C@@H](Cc1ccccc1)C(=O)O; boroPro = OB(O)[C@@H]1CCCN1*
B1: AlaProValboroPro (peptide)
peptide: APV[boroPro]
B2: GlyProValboroPro (peptide)
peptide: GPV[boroPro]
B3: ProProProboroPro (peptide)
peptide: PPP[boroPro]
B4: GlyProProboroPro (peptide)
peptide: GPP[boroPro]
B5: AlaProProboroPro (peptide)
peptide: APP[boroPro]
B6: Tyrosine-proline-alanine-proline boronic acid (peptide)
peptide: YPA[boroPro]
B7: Phenylalanine-proline-alanine-proline boronic acid (peptide)
peptide: FPA[boroPro]
B8: N-Me-Phe-PRO-ALA-PRO boronic acid (peptide)
peptide: [NMeF]PA[boroPro]
B9: AlaAlaValboroPro (peptide)
peptide: AAV[boroPro]

Each binder was assayed against Dipeptidyl amino peptidase type IV (DPP IV) (assay: cell-based or functional assay).

First: B1
Second: B2
The IC50, pH 2 (Tetrapeptide Prodrugs) of the first is higher: 20 nM for the first, 17 nM for the second.

First: B1
Second: B2
The IC50, pH 8 (Tetrapeptide Prodrugs) of the first is lower: 21 nM for the first, 46 nM for the second.

Compared with B1, B2 is lower in IC50 at ten minutes, pH 2: 20 nM for the first, 17 nM for the second.

Compared with B6, B7 is lower in IC50 at ten minutes, pH 2: 15 nM for the first, 6 nM for the second.

First: B1
Second: B2
The IC50 at ten minutes, pH 8 of the first is lower: 21 nM for the first, 46 nM for the second.

First: B6
Second: B7
The IC50 at ten minutes, pH 8 of the first is higher: 17 nM for the first, 8 nM for the second.

Compared with B3, B4 is lower in IC50, pH 2 (Tetrapeptide Prodrugs): 10 µM for the first, 9 µM for the second.

Compared with B3, B4 is lower in IC50 at ten minutes, pH 2: 10 µM for the first, 8.6 µM for the second.

Going from B5 to B8, the IC50 at ten minutes, pH 2 falls from 8.3 µM to 2 µM.

B9 gave an IC50 at ten minutes, pH 2 of 2 µM.

First: B4
Second: B8
The IC50 at ten minutes, pH 8 of the first is higher: 20 µM for the first, 2.7 µM for the second.

Binder B9 has an IC50 at ten minutes, pH 8 of 25 µM.

Binder B5 has an IC50, pH 2 (Tetrapeptide Prodrugs) of 8 mM.
